The results in this text go back to patent US20120122125A1 (AbbVie / Abbott, published 2012).

Assay [1] concerns the target T1, Chagas FP10 recombinant antigen (Trypanosoma cruzi).
T1 construct: also called T. cruzi antigen FP10
T1 chain: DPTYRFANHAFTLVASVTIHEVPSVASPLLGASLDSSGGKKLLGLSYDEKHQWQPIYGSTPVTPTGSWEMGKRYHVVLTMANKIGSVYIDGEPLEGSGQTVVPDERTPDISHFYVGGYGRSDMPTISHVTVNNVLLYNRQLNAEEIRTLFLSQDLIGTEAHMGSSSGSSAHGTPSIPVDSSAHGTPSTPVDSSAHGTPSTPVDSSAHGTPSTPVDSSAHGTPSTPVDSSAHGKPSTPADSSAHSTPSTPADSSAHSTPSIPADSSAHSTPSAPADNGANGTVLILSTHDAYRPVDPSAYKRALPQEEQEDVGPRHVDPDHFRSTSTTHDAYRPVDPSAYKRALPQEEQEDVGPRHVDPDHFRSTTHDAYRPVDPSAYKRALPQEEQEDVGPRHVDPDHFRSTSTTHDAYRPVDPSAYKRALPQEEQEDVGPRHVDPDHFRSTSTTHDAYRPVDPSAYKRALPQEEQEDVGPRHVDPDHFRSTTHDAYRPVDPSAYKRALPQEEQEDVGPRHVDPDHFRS
As to the kind of experiment: SPR, BIAcore 2000; His6-tagged FP10 captured on anti-His4, chimeric antibody injected. On the technique in general: In SPR one partner is held on a chip, and binding of the other changes the refractive index at the surface.

Assay [2] has as its target T2, Chagas FP3 recombinant antigen (Trypanosoma cruzi).
T2 construct: also called T. cruzi antigen FP3; not shown: His6 tag at the amino end, from the pET vector
T2 chain: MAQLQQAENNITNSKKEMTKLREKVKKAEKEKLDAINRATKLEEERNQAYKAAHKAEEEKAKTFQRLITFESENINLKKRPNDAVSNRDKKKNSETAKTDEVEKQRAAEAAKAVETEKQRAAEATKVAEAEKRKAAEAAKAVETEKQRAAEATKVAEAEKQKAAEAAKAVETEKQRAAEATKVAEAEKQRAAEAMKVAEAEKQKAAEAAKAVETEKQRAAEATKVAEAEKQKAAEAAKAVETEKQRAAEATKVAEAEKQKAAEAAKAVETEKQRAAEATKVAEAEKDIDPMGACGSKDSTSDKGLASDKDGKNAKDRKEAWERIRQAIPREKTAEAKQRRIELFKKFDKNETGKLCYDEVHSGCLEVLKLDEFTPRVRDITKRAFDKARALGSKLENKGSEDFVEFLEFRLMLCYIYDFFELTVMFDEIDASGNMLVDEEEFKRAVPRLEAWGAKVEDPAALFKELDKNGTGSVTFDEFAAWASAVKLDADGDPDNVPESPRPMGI
As to the kind of experiment: SPR, BIAcore 2000; His6-tagged FP3 captured on anti-His4, chimeric antibody injected 0-300 nM.

Assay [3] deals with T3, Chagas FRA antigen (Trypanosoma cruzi).
T3 construct: also called FRA-domain; recombinant FRA antigen
T3 chain: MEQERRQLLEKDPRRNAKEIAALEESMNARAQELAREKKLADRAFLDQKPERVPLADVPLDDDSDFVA
Briefly: SPR, BIAcore 2000; murine mAb captured on rabbit anti-mouse IgG, FRA injected.

Assay [4] addresses T1, Chagas FP10 recombinant antigen. Briefly: SPR, BIAcore 2000; murine mAb captured on rabbit anti-mouse IgG, FP10 injected.
In assay [5] the target is T2, Chagas FP3 recombinant antigen. Briefly: SPR, BIAcore 2000; murine mAb captured on rabbit anti-mouse IgG, FP3 injected 0-200 nM.
Assay [6] has the same target. As to the kind of experiment: SPR, BIAcore 2000; His6-tagged FP3 captured on anti-His4, chimeric antibody injected.
The target of assay [7] is Chagas TcF recombinant antigen (Trypanosoma cruzi). Briefly: SPR, BIAcore 2000; chimeric antibody captured on goat anti-human IgG Fc, TcF injected 0-100 nM.
The target in assay [8] is T4, Pep2 antigen (Trypanosoma cruzi).
T4 construct: The form of Pep2 coated in the anti-Pep2 microtiter EIA is not described; also called TcF Pep2 peptide
T4 peptide: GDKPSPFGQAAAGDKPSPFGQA
As to the kind of experiment: SPR, BIACORE; chimeric antibody from transient COS 7L expression; the antigen is not given.

The target of assay [9] is T2, Chagas FP3 recombinant antigen. Briefly: SPR, BIAcore 2000; murine mAb captured on rabbit anti-mouse IgG, FP3 injected.
Assay [10] addresses Chagas TcF recombinant antigen (Trypanosoma cruzi). As to the kind of experiment: SPR, BIAcore 2000; murine mAb captured on rabbit anti-mouse IgG, TcF injected 0-200 nM.
Assay [11] deals with T3, Chagas FRA antigen. As to the kind of experiment: SPR, BIAcore 2000; murine mAb captured on rabbit anti-mouse IgG, FRA injected 0-200 nM.
For assay [12], the target named is Chagas recombinant antigen FP6 (Trypanosoma cruzi). Briefly: SPR, BIAcore 2000; murine mAb captured on rabbit anti-mouse IgG, FP6 injected 0-200 nM.
The target in assay [13] is T1, Chagas FP10 recombinant antigen. Briefly: SPR, BIAcore 2000; His6-tagged FP10 captured on anti-His4, chimeric antibody injected 0-300 nM.
Assay [14] has the same target. Briefly: SPR, BIAcore 2000; murine mAb captured on rabbit anti-mouse IgG, FP10 injected 0-200 nM.

B1: recombinant chimeric (mouse-human) anti-Chagas monoclonal antibody 12-392-150 (FP3) (antibody, V domains shown)
VH: DVQLVESGGGLVQPGGSRKLSCAASGFTFSVFGMHWVRQAPEKGLEWVAYISSGSTIIYYADTVKGRFTISRDNPKNTLFLQMTGLRSEDTAMYYCARPLYYDYDDYAMDYWGQGTSVTVSS
VL: YIVMSQSPSSLAVSAGEKVTMSCKSSQSLLNSRTRKNHLAWYQQKPGQSPKLLIYWASTRESGVPDRFTGSGSGTDFALTISSVQAEDLAVYFCKQSYNLYTFGAGTKLELK
notes: Mouse VH and VL of hybridoma HBFP3 joined to human IgG1 (z, non-a) and human kappa constant regions; the summary and the claims swap them; also called Chimeric Chagas Ab 12-392-150; Chagas FP3 12-392-150CHO2580-104
Regarding B1, the binding result in assay [1] is reported as “no binding (tested: 0 to 300 nM antibody)”. For the same molecule, in assay [2], the Kd (as a rule, the constant that tells how readily two partners part at equilibrium) stood at 0.14 nM; the koff (in general, the rate constant with which the complex falls apart) turned out to be 0.00038 s⁻¹; the kon (in general, the second-order rate constant of association) is 2.7e+06 M⁻¹ s⁻¹.

B2: murine anti-Chagas monoclonal antibody 12-392-150 (FP3) (antibody, V domains shown)
VH: DVQLVESGGGLVQPGGSRKLSCAASGFTFSVFGMHWVRQAPEKGLEWVAYISSGSTIIYYADTVKGRFTISRDNPKNTLFLQMTGLRSEDTAMYYCARPLYYDYDDYAMDYWGQGTSVTVSS
VL: YIVMSQSPSSLAVSAGEKVTMSCKSSQSLLNSRTRKNHLAWYQQKPGQSPKLLIYWASTRESGVPDRFTGSGSGTDFALTISSVQAEDLAVYFCKQSYNLYTFGAGTKLELK
notes: Mouse hybridoma mAb; captured by anti-mouse IgG; also called Murine Chagas Ab 12-392-150; hybrid 12-392
As to B2, the binding result in assay [3] is reported as “no binding (tested: 0 to 200 nM antigen)”. Moreover, the binding result in assay [4] is recorded as “no binding (tested: 0 to 200 nM antigen)”. Also, in assay [5], the Kd worked out at 0.08 nM, the koff was determined as 5e-05 s⁻¹ and the kon came out at 560000 M⁻¹ s⁻¹.

B3: recombinant chimeric (mouse-human) anti-Chagas monoclonal antibody 9-638-132 (Pep2 epitope in TcF and FP6) (antibody, V domains shown)
VH: QVQLQQPGAELVRPGASVKLSCKASGYTFTSYWMNWVKLRPGQGLEWIGMIDPSDSETYYDQVFKDKATLTVDKSSSTAYMHLSSLTSEDSAVYYCARWITTDSYTMDYWGQGTSVTVSS
VL: DIVMSQSPSSLAVSAGEQVTMSCKSSQSLFNSRTRKNYLAWYQQKPGQSPKLLIYWASTRESGVPDRFTGSGSGTDFTLTISSVQAEDLAVYYCKQSYNLLTFGAGTKLELK
notes: Mouse VH and VL of hybridoma HBPep2 joined to human IgG1 (z, non-a) and human kappa constant regions; the summary and the claims swap them; also called Chimeric Chagas Ab 9-638-132; Chagas Pep2 9-638-1928
For B3, the binding result in assay [6] and in assay [1] was “no binding (tested: 0 to 300 nM antibody)” in each case. The Kd in assay [7] was 4.1 nM; in assay [8], roughly 2.6 nM. For the same molecule, the koff in [7] stood at 0.017 s⁻¹. Also, in [7], the kon was 4e+06 M⁻¹ s⁻¹.

B4: murine anti-Chagas monoclonal antibody 9-638-132 (Pep2 epitope in TcF and FP6) (antibody, V domains shown)
VH: QVQLQQPGAELVRPGASVKLSCKASGYTFTSYWMNWVKLRPGQGLEWIGMIDPSDSETYYDQVFKDKATLTVDKSSSTAYMHLSSLTSEDSAVYYCARWITTDSYTMDYWGQGTSVTVSS
VL: DIVMSQSPSSLAVSAGEQVTMSCKSSQSLFNSRTRKNYLAWYQQKPGQSPKLLIYWASTRESGVPDRFTGSGSGTDFTLTISSVQAEDLAVYYCKQSYNLLTFGAGTKLELK
notes: Mouse hybridoma mAb; captured by anti-mouse IgG; also called Murine Chagas Ab 9-638-132; hybrid 9-638
With B4, in assay [3], the binding result is “no binding (tested: 0 to 200 nM antigen)”. In assay [9], the binding result is recorded as “no binding (tested: 0 to 200 nM antigen)”. Besides, in assay [10], the Kd was 5.7 nM, the koff was determined as 0.012 s⁻¹ and the kon worked out at 2.1e+06 M⁻¹ s⁻¹.

B5: murine anti-Chagas monoclonal antibody 8-367-171 (FRA) (antibody, V domains shown)
VH: EVQLQQSGAELVKPGASVKLSCTASGFNIKDTYMHWVKQRPEQGLEWIGRIDPANGNTKYDPKFQGKATITTDTSSNTAYLQLSSLTSEDTAVYYCATSYYGNYVAYWGHGTLVTVSA
VL: DIQMDQSPSSLSASLGDTITITCHASQNINVWLSWYQQKPGNIPKLLIYKASNLHTGVPSRFSGSGSGTGFTLTISSLQPEDIATYYCQQGQSYPLTFGSGRKLEIK
notes: Mouse hybridoma mAb; captured by anti-mouse IgG
In the case of B5, the binding result in assay [9] and in assay [4] was “no binding (tested: 0 to 200 nM antigen)” throughout. Besides, the figures for the Kd in assay [11] and in assay [12] were 37 nM and 5.2 nM, respectively. Also, the off-rate (koff) is 0.13 s⁻¹ in assay [11] and 0.0079 s⁻¹ in assay [12]. Also, the kon in assay [11] is 3.6e+06 M⁻¹ s⁻¹; in [12], 1.5e+06 M⁻¹ s⁻¹.

B6: recombinant chimeric (mouse-human) anti-Chagas monoclonal antibody 10-745-140 (FP10) (antibody, V domains shown)
VH: QVQLQQPGAELVKPGASVKMSCKASGYTFTSYWVHWVKQRPGQGLEWIGVIDPSDSYTSYNQKFKGKATLTVDTSSSTAYMQLSSLTSEDSAVYYCTRHYDFDSWYFDVWGAGTTVTVSS
VL: DVVMTQTPLSLPVSLGDQASISCRSSQSLVHSNGNTYLHWYLQKPGQSPKLLIYKVSNRFSGVPDRFSGSGSGTDFTLKISRVEAEDLGVYFCSQSTHVPPTFGGGTKLEIK
notes: Mouse VH and VL of hybridoma HBFP10 joined to human IgG1 (z, non-a) and human kappa constant regions; the summary and the claims swap them; also called Chimeric Chagas Ab 10-745-140; Chagas FP10 10-745-3796
As for B6, the binding result in assay [6] was “no binding (tested: 0 to 300 nM antibody)”. Further, in [13], the Kd came to 2.9 nM, the koff is 0.00036 s⁻¹ and the kon was found to be 120000 M⁻¹ s⁻¹.

B7: murine anti-Chagas monoclonal antibody 10-745-140 (FP10) (antibody, V domains shown)
VH: QVQLQQPGAELVKPGASVKMSCKASGYTFTSYWVHWVKQRPGQGLEWIGVIDPSDSYTSYNQKFKGKATLTVDTSSSTAYMQLSSLTSEDSAVYYCTRHYDFDSWYFDVWGAGTTVTVSS
VL: DVVMTQTPLSLPVSLGDQASISCRSSQSLVHSNGNTYLHWYLQKPGQSPKLLIYKVSNRFSGVPDRFSGSGSGTDFTLKISRVEAEDLGVYFCSQSTHVPPTFGGGTKLEIK
notes: Mouse hybridoma mAb; captured by anti-mouse IgG; also called Murine Chagas Ab 10-745-140; Chagas 10-745-140
B7: in assay [14], the Kd is 1.9 nM, the koff was found to be 0.00022 s⁻¹ and the kon was found to be 110000 M⁻¹ s⁻¹.
